Patent US20060030524A1, “Treatment of systemic lupus erythematosus by down-regulating the autoimmune response to autoantigens” (Yeda Research and Development Co. Ltd., priority 1998, published 2006)

B1: IDI-2: Ab2 monoclonal antibody anti-idiotypic to PAb-421 that binds DNA; VH and VL SEQ ID NOs:6 and 7 (antibody, listed as Mus sp., V domains shown)
VH: QVQLQQSGPELVKPGASMKISCKASGYSFTGYTINWVKQSHGKNLEWIGLINPYNGGTCYNPKFKGKATLTVDKSSSTAYMELLSLTSEDSAVYYCARRVWLRRDGFYYAMDYWGQGTSVTVSSAKTTPP
VL: AVSLGQRATISCQASESVSFAGTSLMHWYQQKPGQPPKLLIYRASKLESGVPARFSGSGSESDFTLTIDPVEEDDAAMYYCMQSMEDPYTFGGGTKLEIKRADAAPTVSIFPPS
modifications: BINDING (26)..(35) Complementary Determining Region; BINDING (13)..(27) Complementary Determining Region
B2: p53: recombinant mouse p53 protein expressed in E. coli (protein, UniProt P02340 1-390, looked up)
Cellular tumor antigen p53: MTAMEESQSDISLELPLSQETFSGLWKLLPPEDILPSPHCMDDLLLPQDVEEFFEGPSEALRVSGAPAAQDPVTETPGPVAPAPATPWPLSSFVPSQKTYQGNYGFHLGFLQSGTAKSVMCTYSPPLNKLFCQLAKTCPVQLWVSATPPAGSRVRAMAIYKKSQHMTEVVRRCPHHERCSDGDGLAPPQHLIRVEGNLYPEYLEDRQTFRHSVVVPYEPPEAGSEYTTIHYKYMCNSSCMGGMNRRPILTIITLEDSSGNLLGRDSFEVRVCACPGRDRRTEEENFRKKEVLCPELPPGSAKRALPTCTSASPPQKKKPLDGEYFTLKIRGRKRFEMFRELNEALELKDAHATEESGDSRAHSSYLKTKKGQSTSRHKKTMVKKVGPDSD
B3: IDI-1: Ab2 monoclonal antibody anti-idiotypic to PAb-421 that binds DNA; VH and VL SEQ ID NOs:4 and 5 (antibody, listed as Mus sp., V domains shown)
VH: IPQVQLQQSGAELVRPGASVKLSCKASGYIFTSYWINWVRQRPGQGLEWIGNISPADSSTNYNQKFKDKATLTVDKSSTTAYMQLSRPTFEDSAVYYCAREEVRRRRDMDFWGQGTSVTVSSAKTTPPC
VL: RKLDIVITQDELSNPVTSGESVSISCRSRQSLLYKNGKTYLNWFLQRPGQSPQLLIYLMSIRASGVSDRFSGNGSGTDFTLEISRVRAEDVGVYYCQQLVEYPYTFGGGTKLEIKRADAAPT
modifications: BINDING (28)..(37) Complementary Determining Region; BINDING (27)..(42) Complementary Determining Region

Columns and labels:
MRL/MpJ-Fas^lpr mice = assay: Prevention of spontaneous SLE in MRL/MpJ-Fas^lpr mice; type: in vivo; conditions: for heavy proteinuria, ^33 g/l (+++) at week 17 of age, mice affected/treated: peptides 100 μg i.p. in PBS at weeks 12, 18, 24, TCV 2×10^7 cells i.p. at 12 weeks; for death by week 33 of age, percent of mice / heavy proteinuria, ^33 g/l (+++) at week 17 of age, percent of mice: same treatments
Description: Proteinuria was detected with Albustix strips (Bayer, Slough, UK). Leukocytes were counted from heparinized blood following 10-fold dilution in 1% acetic acid.
Thus, modulation of the p53 immune network should affect the course of SLE. A preliminary experiment was designed to see whether the spontaneous SLE development in MRL/MpJ-Fas^lpr mice might be influenced by administering to these mice peptides involved in the p53 network: the CDR peptides of the light and the heavy chain of PAb-421 depicted in FIG. 10 (administered as a mixture), or peptide 364-383 (residues 364-383 of SEQ ID NO:1) of the carboxy terminal domain of p53. The mice were intraperitoneally injected with 100 μg of the p53 peptide epitope of PAb-421 in PBS, or with 100 μg of peptides derived from variable region of PAb-421 in PBS at weeks 12,18, and 24 of age and followed for the development of SLE symptoms. […] Treatment with the peptides derived from the variable region of PAb-421 protected all five mice from development of proteinuria (0%; Table 2: 421: CDR). At week 33 of age, 5 of 6 non-treated mice (83%, cf. Table 2) were dead, whereas none of the mice treated with either peptide had died (0% each; see Table 2).
Also carried out was T cell vaccination against immunity to PAb-421. MRL/MpJ mice were immunized intradermally with 30 μg PAb-421 in complete Freund's adjuvant, followed by a boost in incomplete Freund's adjuvant. Cells derived from the draining lymph nodes, which were enriched for T cells reactive to PAb-421 and the p53 epitope peptide of PAb-421, were activated with 2 μg per ml Concanavalin A. Twelve week old MRL/MpJ-Fas^lpr mice were then injected intraperitoneally with 2×10^7 freshly activated and gamma-irradiated (2500 rad) cells per mouse. At 17 weeks of age, only 1 out of 8 treated mice […] developed severe proteinuria, while, in contrast, 6 out of 8 untreated control mice (75%) developed severe proteinuria. 421-TCV vs. not treated.

[1] = tested on: single-stranded homooligomers (20-mers) of dG, dA, dC and dT; assay: Band-shift assay with single-stranded homooligomers; type: binding; conditions: preliminary studies
Description: Preliminary studies were done to define the oligonucleotide motifs recognized by IDI-1 and IDI-2 and to test whether p53 itself might bind the same oligonucleotide. Single-stranded homooligomers (20-mers) of dG, dA, dC and dT were used. […] Thus, dG is an important ligand for the anti-DNA monoclonal antibodies and for p53 itself. This further supports the presumptions that IDI-1 and IDI-2 mimic the carboxy terminal conformation of p53. In fact, the binding of the antibody to oligo dG is evidence that the antibody actually mimics the C-terminal domain of p53.

PAb-421 = assay: Reactivity of monoclonal antibodies IDI-1 and IDI-2 to PAb-421; type: binding, mouse
Description: (§1) FIG. 7 is a graph showing the reactivities of monoclonal antibodies IDI-1 and IDI-2, which were selected for idiotypic binding to PAb-421. […] The binding to single-stranded or double-stranded calf thymus DNA was assessed by ELISA after the DNA had been gamma-irradiated with the indicated dosages (0-10,000 rad).
To generate such antibodies, BALB/c mice were immunized with PAb-421 and selected hybridomas producing anti-idiotypic antibodies that bound PAb-421 and could also bind DNA were isolated.
(§2) Two monoclonal antibodies, IDI-1 and IDI-2, could be isolated which had been selected for idiotypic binding to PAb-421 and their reactivities were determined. […] Thus, these two novel monoclonal antibodies of the present invention appear to mimic the DNA-binding specificity of p53. Thus, such antibodies could serve as models of the critical regulatory conformation of the carboxy-terminal domain of p53.

[2] = tested on: single-stranded or double-stranded calf thymus DNA; assay: ELISA binding of IDI-1 and IDI-2 to calf thymus DNA, with or without gamma-irradiation; conditions: for change of binding to single-stranded DNA after gamma-irradiation of the DNA: 0-10,000 rad, depending on the radiation dose; for reactivity to DNA (FIG. 7): single-stranded or double-stranded DNA
Description: as §1
For anti-DNA ELISA, a secondary antibody conjugated to horseradish peroxidase, and as substrate 1 mg/ml ABTS in 0.2 M citric acid, 0.2 M Na2HP04, and 3% H202 (all from Sigma) was used. The test antigens used were (Fab) 2 fragments of Ab2 anti-PAb-421, which were prepared as described (Harlow et al, 1988), recombinant p53, the p53 peptide epitope of PAb-421, histones or, after pre-coating with methylated BSA, calf thymus DNA (all from Sigma). All antibody titers are shown as the O. D. produced by the test sera at a dilution of 1:100. Dots represent individual sera, bars represent the median of each group.
as §2

[3] = tested on: mouse antibodies other than PAb-421, like R73; assay: Reactivity of IDI-1 and IDI-2 to control mouse antibodies; type: binding; conditions: control mAb
Description: as §1, §2

Molecule	death by week 33 of age, mice dead/treated (MRL/MpJ-Fas^lpr mice; peptides 100 μg i.p. in PBS at weeks 12, 18, 24)	heavy proteinuria, ^33 g/l (+++) at week 17 of age, mice affected/treated (MRL/MpJ-Fas^lpr mice)	heavy proteinuria, ^33 g/l (+++) at week 17 of age, mice affected/treated (MRL/MpJ-Fas^lpr mice; listed as 421-epitope)	death by week 33 of age, percent of mice (MRL/MpJ-Fas^lpr mice)	heavy proteinuria, ^33 g/l (+++) at week 17 of age, percent of mice (MRL/MpJ-Fas^lpr mice)	death by week 33 of age, percent of mice (MRL/MpJ-Fas^lpr mice; listed as 421-epitope)	heavy proteinuria, ^33 g/l (+++) at week 17 of age, percent of mice (MRL/MpJ-Fas^lpr mice; listed as 421-epitope)	binding to homooligomers in band-shift assay [1]	reactivity to PAb-421 (FIG. 7) (PAb-421)	change of binding to single-stranded DNA after gamma-irradiation of the DNA [2]	reactivity to DNA (FIG. 7) [2]	reactivity to mouse antibodies other than PAb-421 [3]
421-Epitope: p53 peptide SYLKTKKGQSTSRHKKTMVK, residues 364-383 of SEQ ID NO:1, carboxy terminal domain of p53 (listed as Mus sp.)	0/6	2/5	2 out of 5	(0%)	(33%)	0%	40%					
B1								bound to the dG oligomer better than they did the others	specific reactivity	somewhat less	specific reactivity	No reactivity
B2								bound to the dG oligomer better than they did the others				
B3								bound to the dG oligomer better than they did the others	specific reactivity	markedly enhanced	specific reactivity	No reactivity
